Data from patent publication US20240409645A1 (DUALYX, published 2024).
Positions count from the first letter of the chain named.

T1: human IL-2Rβ (human, UniProt P14784 27-240, limits assumed)
T1 construct: recombinant protein, coated or immobilised; also called hu IL-2R; IL-2R beta
T1 sequence: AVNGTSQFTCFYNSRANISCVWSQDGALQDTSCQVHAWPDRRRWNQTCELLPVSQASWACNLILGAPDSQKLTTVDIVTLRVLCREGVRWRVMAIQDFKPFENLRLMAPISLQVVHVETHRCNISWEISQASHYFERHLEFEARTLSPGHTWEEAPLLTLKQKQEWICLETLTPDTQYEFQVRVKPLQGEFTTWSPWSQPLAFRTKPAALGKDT

B1: FJ1427 P035MP03A12 (VHH)
VHH: EVQLVESGGGLVQAGGSLRLSCAASGRTFSINAMGWFRQAPGKEREFVAAISRSGGSTVYVDGVKGRFTISRDNAKNTVYLQMNSLEPEDTAVYYCAATMAVGWTTRWRTADFDSWGQGTQVTVSS
notes: soluble VHH in periplasmic extract; also called 21-MP03A12; clone nr
B2: FJ1427_P035MP02C07 (VHH)
VHH: B1 VHH with E1Q, A33T, G56D, G63S, S85T, E87K, A98T, M100V, R109S, A111I
notes: soluble VHH in periplasmic extract; also called clone nr
B3: FJ1427_P035MP02B03 (VHH)
VHH: QVQLVESGGGLVQTGGSLRLSCAASGSRFVSDFMGWYRQVPGKQRELVADMADGGSARYGDSVKGRFTILRDSGNSTAYLQMSSLKPEDTGVYYCKAGLWIAGRHFDYWGQGTQVTVSS
notes: as for B2
B4: FJ1427_P035MP02F06 (VHH)
VHH: B3 VHH with Q1E, V30I, D72E, S76A
notes: as for B2
B5: FJ1427_P035MP02C02 (VHH)
VHH: B3 VHH with T14P, S73N, G74M, Y79F
notes: as for B2
B6: FJ1427_P035MP02D06 (VHH)
VHH: EVQLVESGGGLVQTGGSLRLSCAASGSQFINDVMGWYRQVPGKQRELVADMDDTGSTKYADSVKGRFTILRDSVKNTAYLQMSNLKPEDTGVYYCKAGLWIKGRHSDYWGQGTQVTVSS
notes: soluble VHH in periplasmic extract; also called clone nr; 140
B7: FJ1427_P035MP02E01 (VHH)
VHH: EVQLVESGGGLVQIGGSLRLSCAASGRTFSSITMAYFRQVPGKEREWVAGINFSGTRTFYADSVKGRFLISRDDAKSTMYLQMNSLKPEDTAVYYCAASPRGFYGPGNALYDYWGQGTQVTVSS
notes: as for B2
B8: FJ1427_P035MP02E05 (VHH)
VHH: B7 VHH with R45H
notes: as for B2
B9: FJ1427_P035MP02B09 (VHH)
VHH: EVQLVESGGGLVQAGGSLRLSCAASGRTFSTTEMGWFRQAPGKEREFVAAITWTGRGTMYAESVEGRFTISRENAKNMVYLQMNSLKPEDTAIYYCAAARRGRAAVRSEGGYDFWGQGTQVTVSS
notes: as for B2
B10: FJ1427_P035MP02A11 (VHH)
VHH: B9 VHH with V121A
notes: as for B2
B11: FJ1427_P035MP02G10 (VHH)
VHH: B9 VHH with E1Q
notes: as for B2
B12: FJ1427_P035MP02D07 (VHH)
VHH: B9 VHH with T28S, F29L, T54S, T69A, I70V, M78T
notes: as for B2
B13: FJ1427_P035MP02B08 (VHH)
VHH: EVQLVESGGGLVQAGGSLRLSCAASGRAIENYPVGWFRQAPGKEREFVAAITWISGSTLYADSVKGRFTISRDNAKNTVYLQMSSLKPEDTALYYCAAALKTITRGQNDYSYWGQGTQVTVSS
notes: soluble VHH in periplasmic extract; also called 16-MP02B08; clone nr
B14: FJ1427 P035MP02H09 (VHH)
VHH: B13 VHH with E1Q, V2L, A14P, S25A, Q39R
notes: as for B2
B15: FJ1427_P035MP02E10 (VHH)
VHH: B13 VHH with E1Q, S25A, Q39R
notes: as for B2
B16: FJ1427 P035MP02B07 (VHH)
VHH: B13 VHH with Q13E, I29F, E30N, Y32F, V34M, N74K, A75S, S85G, N108H, S111T
notes: as for B2
B17: FJ1427_P035MP02B10 (VHH)
VHH: QVQLVESGGGLVEAGGSLRLSCAASGRAFNNFPMGWFRQAPGKEREFVAAITWISGSTLYADSVKGRFTISRDKSKNTVYLQMSGLKPEDTALYYCAAALKTITRGQHDYTYWGQGTQVTVSS
notes: soluble VHH in periplasmic extract; also called clone nr; 170
B18: FJ1427 P035MP02A07 (VHH)
VHH: QVQLVESGGGLVQAGGSLRLSCAVSGDVFVRYTMAWFRQAPGKEREFVATVTDSGRTTEYVDSVKGRFTVSRDNAKNTVYLQMNNLKPEDTAVYYCAANTDYFRIRSLDANTWGQGTQVTVSS
notes: as for B2
B19: FJ1427 P035MP02C11 (VHH)
VHH: B18 VHH with T50S, N85S, R104Q, D109R
notes: as for B2
B20: FJ1427_P035MP02C10 (VHH)
VHH: B18 VHH with S21A, V24L, T50S, E59D, D62A, K65Q, A75N, N85S, R104Q, A110R
notes: as for B2
B21: FJ1427 P035MP02G08 (VHH)
VHH: B18 VHH with A23T, T50S, D62H, K65R
notes: as for B2
B22: FJ1427 P035MP02D08 (VHH)
VHH: B18 VHH with Q1E, A23V, A49T, T50S, V51I
notes: as for B2
B23: FJ1427_P035MP02F10 (VHH)
VHH: B18 VHH with Q1E, A23V, T50V, R104Q, L108V, A110N, T112A
notes: as for B2
B24: FJ1427 P035MP02F07 (VHH)
VHH: B18 VHH with V24A, T50S, E59D, V93R, R104Q
notes: soluble VHH in periplasmic extract; also called clone nr; 150
B25: FJ1427_P035MP02A08 (VHH)
VHH: B18 VHH with Q1E, A23T
notes: as for B2
B26: FJ1427_P035MP02E07 (VHH)
VHH: QVQLVESGGGLVQAGGSLGLACALSGDVFVRYTMAWFRQAPGKEREFVASVTDSGRTTDYVASVQGRFTVSRDNNKNTVYLQMNSLKPEDTAVYYCAANTDYFQIRSLDRNTWGQGTQVTVSS
notes: as for B2
B27: FJ1427_P035MP06A07 (VHH)
VHH: B18 VHH with V5Q, V24A, T50S, V79A, V93I, R104Q, A110L
notes: soluble VHH in periplasmic extract; also called 26-MP06A07; clone nr
B28: FJ1427 P035MP02F02 (VHH)
VHH: B26 VHH with Q1E, G19R
notes: soluble VHH in periplasmic extract; also called clone nr; 110
B29: FJ1427_P035MP02A09 (VHH)
VHH: B18 VHH with T50S, V64A, N85S, R104Q, D109R
notes: as for B2
B30: FJ1427_P035MP02F09 (VHH)
VHH: B18 VHH with Q1E, V24A, T50S, E59D, R104Q, D109E, A110F
notes: as for B2
B31: FJ1427 P035MP02H10 (VHH)
VHH: B18 VHH with Q1E, V24A, T50S, E59D, R104Q, R106K, A110R
notes: as for B2
B32: FJ1427_P035MP02G07 (VHH)
VHH: B18 VHH with T50S, V79A, R104Q, A110L
notes: as for B2
B33: FJ1427_P035MP02G09 (VHH)
VHH: B18 VHH with A23T, T50L
notes: as for B2
B34: FJ1427_P035MP02E08 (VHH)
VHH: B18 VHH with Q1E, A23V, T50V, R104Q, L108V, A110N, T112A
notes: as for B2
B35: FJ1427 P035MP02D09 (VHH)
VHH: B26 VHH with G19R
notes: as for B2
B36: FJ1427 P035MP02H05 (VHH)
VHH: EVQLVESGGGSVQTGGSLRLSCVVSGSHFISDVMGWYRQVPGKQRELVADMADGGSAKYGDSVKGRFTILRDSVKNTVTLQMSSLNPEDTGVYYCKAGLWITGRHSDYWGQGTQVTVTS
notes: as for B2

molecular target: T1, human IL-2Rβ; experiment: P.E. ELISA, coated protein
Method: In a binding ELISA, human or mouse IL-2Rα, IL-2Rβ and IL-2Rγ proteins were coated directly on maxisorp microtiter plates overnight at 4° C. Free binding sites were blocked using 4% Marvel in PBS for 1 hour. Next, 1:5 dilution of P.E. in 1% Marvel/PBS were added to wells and incubated for 1 hour. […] Binding specificity was determined based on O.D. at 450 nm values compared to negative controls.

P.E. binding ELISA OD [OD450 nm]	Binder
0.146	B1
0.731	B2
0.383	B3
0.214	B4
0.401	B5
0.298	B6
1.11	B7
0.856	B8
0.811	B9
0.891	B10
0.974	B11
0.747	B12
1.38	B13
1.51	B14
1.39	B15
0.38	B16
0.476	B17
0.791	B18

P.E. binding ELISA OD [OD450 nm]	Binder
1.57	B19
1.29	B20
0.441	B21
0.905	B22
0.595	B23
0.848	B24
1.79	B25
0.541	B26
1.03	B27
0.684	B28
1.3	B29
1.47	B30
0.435	B31
0.636	B32
0.527	B33
0.45	B34
1.47	B35
0.192	B36

molecular target: T1, human IL-2Rβ; experiment: SPR, P.E. off-rate
Method: SPR was performed to determine dissociation rates using Biacore 3000 instrument (GE Healthcare). Briefly, human and mouse IL-2R proteins were immobilized on carboxylmethyl dextran sensor chip (CM5) at approximately 2500 RUs using amine coupling in acetate buffer (GE Healthcare). The VHH-containing P.E. were loaded with a flow rate of 30 uL/min and the off-rates were measured over a 120s period.

koff [s⁻¹]	Binder
0.00628	B1
0.00231	B2
0.000215	B3
0.000203	B4
0.00057	B5
0.000374	B6
4.5e-05	B7
0.00031	B8
0.00022	B9
0.000293	B10
0.000307	B11
0.000982	B12
0.000141	B13
0.000141	B14
0.000615	B15
0.000336	B16
0.000284	B17
0.00211	B18

koff [s⁻¹]	Binder
0.000433	B19
0.000521	B20
0.00178	B21
0.00236	B22
0.000788	B23
0.00164	B24
0.00198	B25
0.000577	B26
0.000363	B27
0.000617	B28
0.000617	B29
0.00107	B30
0.000757	B31
0.000259	B32
0.0011	B33
0.000846	B34
0.000498	B35
0.000268	B36
